{"source": "paper PMC3089455", "key": {"[1]": {"biological_target": "Aeromonas hydrophila AhQnr (Aeromonas hydrophila ATCC 7966)", "assay": "AUC"}, "[2]": {"biological_target": "AhQnr Δdouble deletion mutant (both loops removed) with C-terminal hexahistidine tag (Aeromonas hydrophila ATCC 7966)", "assay": "SEC"}, "[3]": {"biological_target": "AhQnr Δloop1 deletion mutant with C-terminal hexahistidine tag (Aeromonas hydrophila ATCC 7966)", "assay": "SEC"}, "[4]": {"biological_target": "AhQnr Δloop2 deletion mutant with C-terminal hexahistidine tag (Aeromonas hydrophila ATCC 7966)", "assay": "SEC"}}}
{"substance": "Aeromonas hydrophila AhQnr (natural protein)", "values": [{"measurement": "stoichiometry N", "setting": "[1]", "value": 2}]}
{"substance": "AhQnr Δdouble deletion mutant (both loops removed) with C-terminal hexahistidine tag (natural protein)", "values": [{"measurement": "stoichiometry N", "setting": "[2]", "value": 2}]}
{"substance": "AhQnr Δloop1 deletion mutant with C-terminal hexahistidine tag (natural protein)", "values": [{"measurement": "stoichiometry N", "setting": "[3]", "value": 2}]}
{"substance": "AhQnr Δloop2 deletion mutant with C-terminal hexahistidine tag (natural protein)", "values": [{"measurement": "stoichiometry N", "setting": "[4]", "value": 2}]}
